Source: patent US5789237, “Nucleic acid sequences coding for or complementary to nucleic acid sequences coding for interleukin 9 receptor” (Ludwig Institute for Cancer Research, dated 1998)
One block for each binder: values may come before it.

Target: T1, purified recombinant murine IL9, 125I labelled (murine, UniProt P15247, 125I label)
T1 sequence: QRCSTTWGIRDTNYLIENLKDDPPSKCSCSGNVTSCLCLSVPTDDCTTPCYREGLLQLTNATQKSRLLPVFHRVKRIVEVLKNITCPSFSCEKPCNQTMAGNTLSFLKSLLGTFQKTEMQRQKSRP
Experiment: Scatchard analysis on transfected COS cells
Protocol: In order to make sure that clone p9RA1 and all subsequent clones did in fact express IL9R. Scatchard analysis was carried out on transfected COS cells, following Goodwin et al., Cell 60: 941–951 (1990). […] This is slightly higher than the dissociation constant measured on TS1 cells previously, i.e., 67 pM.

Kd: 194 pM
B1: murine IL-9 receptor encoded by clone p9RA1 (receptor)
chain: VSVPEQGGGGQKAGAFTCLSNSIYRIDCHWSAPELGQESRAWLLFTSNQVTEIKHKCTFWDSMCTLVLPFEEVFLPFDNFTITLHRCIMGQEQVSLVDSQYLPRRHIKLDPPSDLQSNVSSGRCVLTWGINLALEPLITSLSYELAFKRQEEAWEQARHKDRIVGVTWLILEAVELNPGSIYEARLRVQMTLESYEDKTEGEYYKSHWSEWSQPVSFPSPQRRQGLLVPRWQWSASILVVVPIFLLLTGFVHLLFKLSPRLKRIFYQNIPSPEAFFHPLYSVYHGDFQSWTGARRAGPQARQNGVSTSSAGSESSIWEAVATLTYSPACPVQFACLKWEATA

Kd: 126 pM
B2: murine IL-9 receptor encoded by clone p9RC4 (receptor)
chain: VSVPEQGGGGQKAGAFTCLSNSIYRIDCHWSAPELGQESRAWLLFTSNQVTEIKHKCTFWDSMCTLVLPFEEVFLPFDNFTITLHRCIMGQEQVSLVDSQYLPRRHIKLDPPSDLQSNVSSGRCVLTWGINLALEPLITSLSYELAFKRQEEAWEARHKDRIVGVTWLILEAVELNPGSIYEARLRVQMTLESYEDKTEGEYYKSHWSEWSQPVSFPSPQRRQGLLVPRWQWSASILVVVPIFLLLTGFVHLLFKLSPRLKRIFYQNIPSPEAFFHPLYSVYHGDFQSWTGARRAGPQARQNGVSTSSAGSESSIWEAVATLTYSPACPVQFACLKWEATAPGFPGLPGSEHVLPAGCLELEGQPSAYLPQEDWAPLGSARPPPPDSDSGSSDYCMLDCCEECHLSAFPGHTESPELTLAQPVALPVSSRA
